Experimental data: patent US20090017017A1 (SYMPHOGEN A S, published 2009)

Biological target: T1, Rhesus D antigen (human, UniProt Q02161 2-417)
T1 construct: whole, on cells; Presented on RhD(+) erythrocytes; also called RhD; RhD antigen
T1 sequence (looked up): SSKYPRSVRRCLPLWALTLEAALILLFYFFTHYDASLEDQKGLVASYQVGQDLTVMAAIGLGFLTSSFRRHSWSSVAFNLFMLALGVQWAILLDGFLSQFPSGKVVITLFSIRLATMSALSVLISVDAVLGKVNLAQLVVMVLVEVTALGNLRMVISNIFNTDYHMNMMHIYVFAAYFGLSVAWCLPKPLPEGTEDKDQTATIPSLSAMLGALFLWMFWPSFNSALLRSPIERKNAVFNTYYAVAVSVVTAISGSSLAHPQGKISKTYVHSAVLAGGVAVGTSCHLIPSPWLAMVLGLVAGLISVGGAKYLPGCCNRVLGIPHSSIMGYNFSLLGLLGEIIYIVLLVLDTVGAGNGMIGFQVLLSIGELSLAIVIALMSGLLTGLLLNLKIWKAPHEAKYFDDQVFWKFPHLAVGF
Experiment: Fab screening on RBC (agglutination, FACS)
Procedure: After each round of panning single colonies were picked for analysis of their binding properties to red blood cells in agglutination assays. Briefly, single colonies were inoculated into 2×YT/100 μg/mL carbenicillin/1% glucose and shaken overnight at 37° C. The next day, DeepWell plates were inoculated using 900 μl 2×YT/100 μg/mL carbenicillin/0.1% glucose and 10 μl overnight culture. The plates were shaken for two hours at 37° C., before Fab induction was performed with addition of 300 μl 2×YT/100 μg/mL carbenicillin/0.25 mM IPTG per well. The plate was shaken overnight at 30° C. The following day, the bacteria were pelleted by centrifugation (3200×g, 4° C., 10 minutes), and re-suspended in 100 μl of 0.8 M NaCl, 0.2×PBS, 8 mM EDTA, and incubated for 15 minutes on ice in order to perform a periplasmic extraction of the Fab fragments. The plate was transferred to −20° C. and finally the suspension was thawed and centrifugation was performed for 10 minutes at 4° C. and 3200×g. The periplasmic extract was used in ELISA assays for analysis of Fab content and in agglutination assays to evaluate the binding potential of the individual Fab fragments.
The agglutination assay was performed as follows: RhD(−) and RhD(+) RBC were mixed in a 1:1 ratio, and washed 3 times in PBS. After the final wash, the cell mix was re-suspended in 1% BSA in PBS at a density of 10% cells, 50 μl was added to each well of a 96-plate. Periplasmic extracts were added to the wells. As a positive control Rhesogamma P immunoglobulin (Aventis) was used according to the manufacturer's instructions. The plates were incubated for one hour at room temperature with gentle shaking. The cells were washed three times with PBS, before the secondary antibody was added (goat anti-human Fab/FITC conjugate, Sigma F5512) in a 1:100 dilution. The plates were left for agglutination for one hour at room temperature without shaking. Fab fragments positive in the agglutination assay was determined by visual inspection, and recorded by taking a picture. Quantization of the binding activity of the Fab fragments was performed by FACS analysis of the agglutination samples.

B1: RhD189.181E07 (Fab, V domains shown)
VH: QVQLVESGGGVVQPGRSLRLSCAASGFTFSSYGMHWVRQAPGKGLEWVAVIWYDGSNKYYADSVKGRFTISRDNSKNTLYLQMNSLRAEDTAVYYCARDMVTMVRGAYRNYYYYGMDVWGKGTTVTVSS
VL: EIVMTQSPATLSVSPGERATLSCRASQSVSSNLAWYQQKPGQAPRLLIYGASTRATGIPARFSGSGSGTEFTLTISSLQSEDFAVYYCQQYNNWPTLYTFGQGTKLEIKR
notes: Tested as Fab in E. coli periplasmic extract (VH on human gamma 1 CH1, vector Em351)
binding result: binds
